These results are taken from paper PMC8746653, “Biochemical and Structural Analysis of a Glucose-Tolerant β-Glucosidase from the Hemicellulose-Degrading Thermoanaerobacterium saccharolyticum” (Molecules, 2022).

Data set [1] addresses T1, TsaBgl (Thermoanaerobacterium saccharolyticum, UniProt I3VXG7).
T1 construct: gene Tsac_2208
In words: X-ray crystal structure, […] Å. The class given is binding. To be noted: Tris from buffer bound at active site, contacts Glu163 and Glu351; crystallised in 0.1 M Tris-HCl pH 7.0.

Data set [2] concerns the target T1, TsaBgl. Briefly: pNPG hydrolysis, pNP release at […] nm, inhibitor titration. The class given is biochemical. To be noted: read-out: concentration that reduced the enzyme activity by half.
Substrate in the data set “purified protein”: O=[N+]([O-])c1ccc(O[C@@H]2O[C@H](CO)[C@@H](O)[C@H](O)[C@H]2O)cc1
Briefly: purified protein. To be noted: 100 mM sodium phosphate pH 6.0, 55 °C, 0-10 mM pNPG.

Consider `NC(CO)(CO)CO` [Tris], for which, on TsaBgl [1], the “X-ray crystal structure, 1.70 Å” value is reported as “one Tris molecule was bound to the active site”. Also, the IC50 on TsaBgl [2] was approximately 10 mM.

B1: TsaBgl (Thermoanaerobacterium saccharolyticum JW/SL-YS485) (protein)
chain: MLDFSKDFLFGVATASYQVEGAYNEDGRTMSIWDTFSRQDGKVYKSHNGDVACDHYHLYKDDVKMMKDLGIEAYRFSIAWPRIFPAKGQYNPKGMDFYKRLTDELLKNDIKPFATIYHWDLPQWADDLGGWLNREIVEWYGEYAEKLFSELGGYIKNWITLNEPWCSSFLSYFIGEHAPGHKDLGEALLVSHNLLLSHGKAVEIFRGLNLDDSKIGITLNLNEVFPASDSDDDKVAAQIADGFQNRWFLDPLFKGKYPQDMVEYFGKYAKVDFINDEDLKLISQKLDFLGVNYYTRAVVQKGNDGLLDAVQIDPGNERTEMGWEIYPESLYNILMRLKREYTYDMPLYITENGAAFNDVVEDDGRVHDEKRVEFLKQHFKEAKRFLNDGGNLKGYFVWSLMDNFEWAHGYSKRFGIVYVDYETEKRILKDSALWYKDLISTRTI
In general, Km refers to the concentration of substrate that gives half-maximal velocity. As usually defined, the kcat is the number of substrate molecules converted per active site and unit of time at saturation. Usually kcat/Km stands for the turnover number divided by the Michaelis constant. In the case of B1, in the data set “purified protein”, the Km came to 360 ± 20 µM, the kcat stood at 18.6 s⁻¹ and the kcat/Km is 51000 M⁻¹ s⁻¹.
